Data reported in patent US20240245805A1 (Orna Therapeutics, Inc., priority 2020, published 2024).

Test system: HEK293 cells
Type: cell-based, human
Settings: circular RNA encoding Gluc with the listed IRES (UTR truncated to 675 nt) transfected into HEK293 cells; supernatant after 24 hours

Row | Molecule | Expression (luminescence from secreted Gluc protein)
1 | Orivirus (nucleic acid, listed as Orivirus sp., lipid formulation) DNA: GGTCCCAGGCCAATATTCTTCGTAAGGCTTGGTTCCAATTTTCCACCACTCGTGTTTGGGTTCTGGCCTATGGTACCCAGAGGGGCGGTTTGGGGGAATTAACTCCCCCTCCCCTGTGGTCCTATACCACCCCACACCTCTGTGGGCTTTCTTTACTATCTTCTTGTTTTCCGACTTTTAAACACTAGGCAGGCGCGCCTAGTCATACACCGCCCGGCTGGTCTTTCCAGCTCTTGTGGGCGGTGCGCGCTGGTCCATCGTGCCCAGCGACATAGCACCTTGTGGACACCTCCGAACGCCCTCCCCTGTATGGGGTGGTGCCCAGGGGTTTCAGTGTGGTGACACACTCCCTGGGGCCCGAAAGGCTAGTGTGCAACAGGTGAGGTACAGCCAGCTGCCCCCGTGGCTGGAGGGACCAAGCTTGTGAAGCACACCTCACCTTCTTGGGGGTGGGCTAGTAAGTGGTGAAAGCATAGTGTCCGTGTCGCTGGCCAACACTTTGGGTCAAGTCCAGCCACTCAGTGAGTAGATGCCCAGGAGGTACCCCTAGTGGATCTGACTTGGGGCCTGTTACTTAATGCAGGTTAAAAACTATGAAAGCTGAGTAGTGTAGCCCGGCTGGTGGCTTCTCTTCCTTATTCATTCTATTTTATGGTGACAAACGCAACTGAAGCC | 6.09E+05
2 | Limnipivirus C (nucleic acid, lipid formulation; Limnipivirus C) DNA: GTTTCTGAGCACTGGTAAGAGCTTAGACAAACGTTTTTAAAATTTATTTTCTCTGCAACTTTTGTTTGTGTTTATTTTTATTTGTTAATTTTGCGCCTAAGCATTTGTTGCGAAGTATTTGATTCATTAGTAATATTACTTATTGTTTATTTAGATGGTATTCAAAGTGGTGGGAGTATCGAACCCAAGCGTCGTATGCTATCTCCTTGAACAATTTTTAATCATTGCGAAGTGATCATTGAAAAGGATAGGTGTTTAAGAACTCAAAGAGTGTTAATAATGTTGGGTGACAGGTGTCCCCATAGAATTTATTAACATGATTTGGACTGGTTATCTAGTAAGAAGAACCATCGAACGCACGAGCGAGCATTGCTTGCGGGGCAGTTACCCTGCGTCGATGTAAGTGTGTACCGGGGGGTGCACATGTTGATTCTTTATGGCCTGATAGGGTGCGTCATTCGCGCCTAGATAATTAGTATAATGCGAATGGAATAAATTTAC | 1.35E+05
3 | Parechovirus D (nucleic acid, lipid formulation; Parechovirus D) DNA: ACATGGGGCAGGTGTGCTGTGCCAAGAGCAACACTACGGTGGCCGAGCCGATGGTTCGTCACCACGTAGTAGGACTCCGTAGTGCTTGGTTACGGCGGACGTAAGTCAGTTGAGTGATGTCTAAGTGGCAAACCATGAGTACATGGTAACCTTGTGTGGACTCGCGGGACGGAATTTCCTATCCCATTGACTCCTTGTAGCAAGGTGGGTATACCCAACCACAATGGCAGCACCCTGGGTGGGAACCCAGGGGCCTGGATTAGTATCCAGTCACACAGCCTGATAGGGTGGCGGCTCAGCCACTGACCAGCGTCTCTAAATAATTGTGAGCTGTTCATGCACC | 3.10E+05
4 | HAV HM175 (nucleic acid, lipid formulation; Hepatovirus A) CGCCGTTTGCCTAGGCTATAGGCTAAATTTTCCCTTTCCCTTTTCCCTTTCCTATTCCCTTTGTTTTGCTTGTAAATATTGATTTGTAAATATTGATTCCTGCAGGTTCAGGGTTCTTAAATCTGTTTCTCTATAAGAACACTCATTTCACGCTTTCTGTCTTCTTTCTTCCAGGGCTCTCCCCTTGCCCTAGGCTCTGGCCGTTGCGCCCGGCGGGGTCAACTCCATGATTAGCATGGAGCTGTAGGAGTCTAAATTGGGGACACAGATGTTTGGAACGTCACCTTGCAGTGTTAACTTGGCTTTCATGAATCTCTTTGATCTTCCACAAGGGGTAGGCTACGGGTGAAACCTCTTAGGCTAATACTTCTATGAAGAGATGCCTTGGATAGGGTAACAGCGGCGGATATTGGTGAGTTGTTAAGACAAAAACCATTCAACGCCGGAGGACTGACTCTCATCCAGTGGATGCATTGAGTGGATTGACTGTCGGGGCTGTCTTTAGGCTTAATTCCAGACCTCTCTGTGCTTGGGGCAAACATCATTTGGCCTTAAATGGGATTCTGTGAGAGGGGATCCCTCCATTGCCAGCTGGACTGTTCTTTGGGGCCTTATGTGGTGTTTGCCGCTGAGGTACTCAGGGGCATTTAGGTTTTTCCTCATTCTTAAATAATA | 4.96E+05
5 | Fipivirus E (nucleic acid, lipid formulation; Fipivirus E) CTCTTCCGATCTTGGGGGTTCGCCCCCATGTCTCATTTCAACTAGCCGTGTGTCTAGTTAACGCACCGCCTCACCCTGGTCGTTATCGGGTCGGTTCTTGCGACCGTTAGATCGTGAGCGTTTCTGAGGATCAGTTCGTATAAGTTCTCCGGTGTGGCGACCGTAAAATCGTCACGTCCCATGCAATAGATGACGTTAAACTCGTTTGCCAGTTACATAAAGGAATGTTGTTACTTTTAAATTGTCTGTTACATTTAACATCTTGCCAGTATGATGCTACTGTACACTACGGGTGTAGGAACCTTGTAGTGTGACGTATCACTCATATGTGGATGGGTGCTCCAGACCTTTATGGAAGCTCTCAGTTAGTAGTGATCCTTGACTTCATTGAGCCCTGGTAACAGTGGAAGTCAAGATGTATATGTTGCTCAACACACTTCGGTGCTACGAAGCTGTTTGTGGAAGTACTGGCGAGGTTCATTCTGAATCATATGTTTGTCACATAGTCAGGGAGTGCCGTCGCTTACGACGGACCCTTTTTCTTTATAATTACAAATCTGTGTCTCAAGTGTTGTTGGCTGGTTTTCTTCTTCTGTTTTCATTGTTCATATATATACGTCAGAGTGAAAGACTCGGTATATACAAAACTGATCCAGA | 1.10E+05
6 | Simian Sapelovirus 1 (nucleic acid, listed as Sapelovirus sp.) DNA: CCAAGGATCTGTTGCATAGGCGTTGTATCCCCTAACCTTTTACCTACCCATCCCAATAGGACTGGTATTTCGGTTTTGATTGAGTAATGGATACTGATTCTATACCTGTTACCCATTCAGGGGAAAAATGGAGTTTCTTTCATGGATCTGACTTGATATGACCAAGAGTCAACACTTTGCGTGTTGGCCGTATGGAATGCTTTAAGGTTTATTCTTTGGATTATGACTTCAGGGTTGGCCGCCCAGGATAAAAGGCAATTGTGGTAAGTGATGTTAGTCATTGGTGGTTGAAACCTGCCTAAGACGTCCTAGGTCTACGCTGTGCGGGCCGAAGTAAGCTTAGGAATAACAGGGAGTATGCCATTTTCTGCTTTCACCCAACACGACCGTACACGAAAGAGCTAGAGGCACTTTGGGGCAAAGGGAAAAGCTTTGCTTAGCCCGAATGTTCATTTGAGTCCTTGACGAATGCGTCCCGTCTGTCCCGACGGTGAGGCGTATGGCGCATGCTCATGGCATTACCCAATGGTGTATCTGTGAGGGGGGGGCTCCTCACACTTAGTCTAGTGCTACCTGACAGGGCCGCGGCTGGTCGTTTGTGTATGGTATAACCAGTAGTAATCCCCCATGGATTGCTTTAACTTCCCCTCCTCCCTTACCAAGACATTCTCTAAG | 6.55E+07
7 | HAV FH1 (nucleic acid, lipid formulation; Hepatovirus A) CTTGATACCTCACCGCCGTTTGCCTAGGCTATAGGCTAAATTTCCCTTTCCCTGTCCTTTCCCTATTTCCTTTTGTTTTGTTTGTAAATATTAATTCCTGCAGGTTCAGGGTTCTTTAATCTGTTTCTCTATAAGAACACTCAATTTTCACGCTTTCTGTCTCCTTTCTTCCAGGGCTCTCCCCTTGCCCTAGGCTCTGGCCGTTGCGCCCGGCGGGGTCAACTCCATGATTAGCATGGAGCTGTAGGAGTCTAAATTGGGGACGCAGATGTTTGGGACGTCGCCTTGCAGTGTTAACTTGGCTTTCATGAACCTCTTTGATCTTCCACAAGGGGTAGGCTACGGGTGAAACCTCTTAGGCTAATACTTCTATGAAGAGATGCCTTGGATAGGGTAACAGCGGCGGATATTGGTGAGTTGTTAAGACAAAAACCATTCAACGCCGAAGGACTGGCTCTCATCCAGTGGATGCATTGAGGGAATTGATTGTCAGGGCTGTCTCTAGGTTTAATCTCAGACCTCTCTGTGCTTAGGGCAAACACTATTTGGCCTTAAATGGGATCCTGTGAGAGGGGGTCCCTCCATTGACAGCTGGACTGTTCTTTGGGGCCTTATGTGGTGTTTGCCTCTGAGGTACTCAGGGGCATTTAGGTTTTTCCTCATTCTTAAACAATA | 1.24E+05
8 | Fipivirus C (nucleic acid, lipid formulation; Fipivirus C) CGCGGTTAAACCCGCGCAACCTTCTTTCAGCCGCGTCTGAGTAGCGCGGTTAGTCCTGATACACAGTTTCCTGTTGGGTACTGTGTCTTCGGGTGAATGCTCTTGTGTGAATGTTTTAGGCTGTTTAAGGGAAGCGTTTCCCCGTGCGCTGTGAGGGTTTCTCACGCTCTTTCGGGGTGCAGTCTCTTCTGTTGTTCATTAAGATGTATGGATGCACTGTTGTGAAGGATTTGTGAACTGGGGATCGACACCCCGTGAGGGGTGCCCCAGTGTCCATAGGAGTTTGCTGGAGAGGTGTGTTGCTGTAGTGACTATCCGTGACCTGGCATTCTAAGGTGTTGACCCCAACCTGTGAGGGTCTGGATCGCAGTGTTGAAGTGCTTTGGAGGGTTCAATGGGGTTTCTGTAGTGGATATTATGTGCTTGACGACTACTGGTACGAGTGTATTGGGGGTCTACATGTGTGA | 1.09E+05
9 | Parechovirus C (nucleic acid, lipid formulation; Parechovirus C) DNA: CGGTCATCCCCCTTTCCCCACAGCCGGTGTGGGTTCTAATCGGCTCCTACTAAACACCTAAGCATCACTGCGCCTCTATCTCTCCTATCCACAGGTCTAAGACGCTTGGAATAAGACATGTGGGTGCAATAGGAAGATTAGCTAGTCCAATCTCTCCTTCCAGCTACGCTTCTCCCTTCGATGAGCGTAGGGGGGGCCCCCACCTCCCTCATCTCTGGATAGGGCTCTTGCTACGGGGCTTTCCCGTCTGGACCAGCAGGCCCACTGGTGCGCTTCCATTCAAGTTTAGTGTGCATTACTGTCTGAAATATTGCTTTGCTAGGATCTAGTGTAGCGACCTGCATATTGCCAGCGGACTTCCCCACATGGTAACATGTGCCTCTGGGCCCAAAAGGCATGTCTTTGACCGTATGCAGTACAACCCCAGTATAGGTCCTTTCTATGGCAGTATGGATCTCAGTGATGAGTCTATACAGAATATGGAAGTGGTTCGGATATGTCAGCCCGAAGGATGCCCAGAAGGTACCCGCAGATAACCTTAAGAGACTGTGGATCTGATCTGGGGCCCACCACCTTCGGGTGGGTAGAAGCTAACCATGCCTTGGGTTAAAAAACGTCTAAGGGCTGACCAGACCCGGGGGATCCGGGTTTTCCCTATCTTGACCTACTCTAATC | 1.24E+06
